Experimental data from patent US20240309072A1 (Regeneron, published 2024).
Read-outs that look alike come from different tables or passages of the source.

Legend:
Test in all cases: cell-based or functional assay
SARS-COV-2 Spike, D614G [1] = biological target: T1, SARS-COV-2 Spike, D614G (SARS-COV-2, UniProt P0DTC2 14-1273)
[2] = biological target: T2, SARS-COV-2 Spike, Omicron variant BA.1 (SARS-COV-2, UniProt P0DTC2 14-1273)
[3] = biological target: T3, SARS-COV-2 Spike, Omicron variant BA.2 (SARS-COV-2, UniProt P0DTC2 14-1273)
[4] = biological target: SARS-COV-2 Spike, Omicron variant BA.2.12.1 (SARS-COV-2, UniProt P0DTC2 14-1273)
[5] = biological target: T4, SARS-COV-2 Spike, Omicron variant BA.4/BA.5 (SARS-COV-2, UniProt P0DTC2 14-1273)
SARS-COV-2 Spike, D614G [6] = biological target: T1, SARS-COV-2 Spike, D614G; remark: listed apart in the source
[7] = biological target: T2, SARS-COV-2 Spike, Omicron variant BA.1; remark: listed apart in the source
[8] = biological target: T3, SARS-COV-2 Spike, Omicron variant BA.2; remark: listed apart in the source
[9] = biological target: T4, SARS-COV-2 Spike, Omicron variant …; remark: listed apart in the source
[10] = biological target: SARS-COV-2 Spike, Omicron variant BA.2.75 (SARS-COV-2, UniProt P0DTC2 14-1273)
SARS-COV-2 Spike, D614G [11] = biological target: T1, SARS-COV-2 Spike, D614G; remark: listed apart in the source

Binder | Fold change over R10987 against D614G [3] [fold] | pseudovirus neutralization IC50 [3] [pM] | Fold change over R10987 against D614G [4] [fold] | pseudovirus neutralization IC50 [4] [pM] | Fold change over R10987 against D614G [5] [fold] | pseudovirus neutralization IC50 [5] [pM] | Fold Change over R10933 + R10987 against D614G (SARS-COV-2 Spike, D614G [6]) [fold] | pseudovirus neutralization IC50 (SARS-COV-2 Spike, D614G [6]) [pM] | Fold Change over R10933 + R10987 against D614G [7] [fold] | pseudovirus neutralization IC50 [7] [pM] | Fold Change over R10933 + R10987 against D614G [8] [fold] | pseudovirus neutralization IC50 [8] [pM] | Fold Change over R10933 + R10987 against D614G [9] [fold] | pseudovirus neutralization IC50 [9] [pM] | Fold Change over R10933 + R10987 against D614G [10] [fold] | pseudovirus neutralization IC50 [10] [pM] | further results
REGN14315 (antibody, V domains shown) VH: QVQLVQSGAEVKKPGSSVKVSCKASGDTFSTYAINWVRQAPGQGLEWMGRFIHIFGTANYAQKFQGRVTITADESTSTAYMELRSLRSEDTAVYYCARDGVDYGDYRPDYWGQGTLVTVSS VL: EIVLTQSPGTLSLSPGERATLSCRASQSVSSNYLAWYQQKPGQAPRLLIYGASSRATGIPERFSGSGSGTDFTLTISRLEPEDFAVYYCQQYGSSLYTFGQGTKLEIK | 6.78 | 35.9 | 12.7 | 67.3 | 9.38 | 49.7 | 0.6 | 8.78 | 2.76 | 40.4 | 11.5 | 168 | 10.8 | 159 | 87 | 1280 | Fold change over R10987 against D614G (SARS-COV-2 Spike, D614G [1]): 0.22 fold; pseudovirus neutralization IC50 (SARS-COV-2 Spike, D614G [1]): 1.15 pM; Fold change over R10987 against D614G [2]: 1.03 fold; pseudovirus neutralization IC50 [2]: 5.47 pM
REGN14315 + REGN10987 (other) VH 1: QVQLVQSGAEVKKPGSSVKVSCKASGDTFSTYAINWVRQAPGQGLEWMGRFIHIFGTANYAQKFQGRVTITADESTSTAYMELRSLRSEDTAVYYCARDGVDYGDYRPDYWGQGTLVTVSS VL 1: EIVLTQSPGTLSLSPGERATLSCRASQSVSSNYLAWYQQKPGQAPRLLIYGASSRATGIPERFSGSGSGTDFTLTISRLEPEDFAVYYCQQYGSSLYTFGQGTKLEIK VH 2: QVQLVESGGGVVQPGRSLRLSCAASGFTFSNYAMYWVRQAPGKGLEWVAVISYDGSNKYYADSVKGRFTISRDNSKNTLYLQMNSLRTEDTAVYYCASGSDYGDYLLVYWGQGTLVTVSS VL 2: QSALTQPASVSGSPGQSITISCTGTSSDVGGYNYVSWYQQHPGKAPKLMIYDVSKRPSGVSNRFSGSKSGNTASLTISGLQSEDEADYYCNSLTSISTWVFGGGTKLTVL | 13.2 | 69.9 | 21 | 111 | 20.7 | 110 | – | – | – | – | – | – | – | – | – | – | Fold change over R10987 against D614G (SARS-COV-2 Spike, D614G [1]): 0.7 fold; pseudovirus neutralization IC50 (SARS-COV-2 Spike, D614G [1]): 3.68 pM; Fold change over R10987 against D614G [2]: 3.18 fold; pseudovirus neutralization IC50 [2]: 16.9 pM
REGN10933 + REGN10987 (other) VH 1: QVQLVESGGGLVKPGGSLRLSCAASGFTFSDYYMSWIRQAPGKGLEWVSYITYSGSTIYYADSVKGRFTISRDNAKSSLYLQMNSLRAEDTAVYYCARDRGTTMVPFDYWGQGTLVTVSS VL 1: DIQMTQSPSSLSASVGDRVTITCQASQDITNYLNWYQQKPGKAPKLLIYAASNLETGVPSRFSGSGSGTDFTFTISGLQPEDIATYYCQQYDNLPLTFGGGTKVEIK VH 2: QVQLVESGGGVVQPGRSLRLSCAASGFTFSNYAMYWVRQAPGKGLEWVAVISYDGSNKYYADSVKGRFTISRDNSKNTLYLQMNSLRTEDTAVYYCASGSDYGDYLLVYWGQGTLVTVSS VL 2: QSALTQPASVSGSPGQSITISCTGTSSDVGGYNYVSWYQQHPGKAPKLMIYDVSKRPSGVSNRFSGSKSGNTASLTISGLQSEDEADYYCNSLTSISTWVFGGGTKLTVL | – | – | – | – | – | – | 1 | 14.7 | – | – | 326 | 4770 | 230 | 3370 | – | – | pseudovirus neutralization IC50 (SARS-COV-2 Spike, D614G [11]): 12 pM
REGN14287 (antibody, V domains shown) VH: QVQLVQSGAEVKKPGSSVKVSCKASGGTFSNNAISWVRQAPGQGLEWMGKIIPILGIGGDAQKFQGRFTITADKSTSTAYMELSSLRSEDTAVYYCANSGDSRPHAFDIWGQGTMVTVSS VL: QSALTQPASVSGSPGQSITISCTGTSSDVGSYNLVSWYQQHPGKAPKLMIYEVSKRPSGVSNRFSGSKSGNTASLTISGLQAEDEADYYCSSYAGSRREVFGGGTKLTVL | – | – | – | – | – | – | 6.18 | 90.6 | 3.28 | 48.1 | 1.94 | 28.4 | 3.41 | 50 | 3.94 | 57.8 | –
REGN10933 (antibody, V domains shown) VH: QVQLVESGGGLVKPGGSLRLSCAASGFTFSDYYMSWIRQAPGKGLEWVSYITYSGSTIYYADSVKGRFTISRDNAKSSLYLQMNSLRAEDTAVYYCARDRGTTMVPFDYWGQGTLVTVSS VL: DIQMTQSPSSLSASVGDRVTITCQASQDITNYLNWYQQKPGKAPKLLIYAASNLETGVPSRFSGSGSGTDFTFTISGLQPEDIATYYCQQYDNLPLTFGGGTKVEIK | – | – | – | – | – | – | 1.98 | 29.1 | – | – | – | – | – | – | 148 | 2170 | –
REGN14256 (antibody, V domains shown) VH: QVQLQESGPGLVKPSETLSLTCTVSGGSISSHYWSWIRQPPGKGLEWIGYIYYSGSSNYNPSLKSRVTISVDTSKNQFSLKLNSVTAADTAVYYCARHYDILTGFDWFDPWGQGTLVTVSS VL: QSVLTQPPSVSGAPGQRVTISCTGSSSNIGTHYDVHWYQQLPGTAPKLLIYGNSNRPSGVPDRFSGSKSGTSASLAITGLQAEDEADYYCQSFDNSLTAPYVFGTGTKVTVL | – | – | – | – | – | – | 0.77 | 11.4 | – | – | – | – | – | – | – | – | –
REGN10987 (antibody, V domains shown) VH: QVQLVESGGGVVQPGRSLRLSCAASGFTFSNYAMYWVRQAPGKGLEWVAVISYDGSNKYYADSVKGRFTISRDNSKNTLYLQMNSLRTEDTAVYYCASGSDYGDYLLVYWGQGTLVTVSS VL: QSALTQPASVSGSPGQSITISCTGTSSDVGGYNYVSWYQQHPGKAPKLMIYDVSKRPSGVSNRFSGSKSGNTASLTISGLQSEDEADYYCNSLTSISTWVFGGGTKLTVL | 199 | 1060 | 279 | 1480 | 176 | 933 | 0.89 | 13.1 | – | – | 149 | 2180 | 236 | 3460 | – | – | –
REGN14287 + REGN14315 (other) VH 1: QVQLVQSGAEVKKPGSSVKVSCKASGGTFSNNAISWVRQAPGQGLEWMGKIIPILGIGGDAQKFQGRFTITADKSTSTAYMELSSLRSEDTAVYYCANSGDSRPHAFDIWGQGTMVTVSS VL 1: QSALTQPASVSGSPGQSITISCTGTSSDVGSYNLVSWYQQHPGKAPKLMIYEVSKRPSGVSNRFSGSKSGNTASLTISGLQAEDEADYYCSSYAGSRREVFGGGTKLTVL VH 2: QVQLVQSGAEVKKPGSSVKVSCKASGDTFSTYAINWVRQAPGQGLEWMGRFIHIFGTANYAQKFQGRVTITADESTSTAYMELRSLRSEDTAVYYCARDGVDYGDYRPDYWGQGTLVTVSS VL 2: EIVLTQSPGTLSLSPGERATLSCRASQSVSSNYLAWYQQKPGQAPRLLIYGASSRATGIPERFSGSGSGTDFTLTISRLEPEDFAVYYCQQYGSSLYTFGQGTKLEIK | – | – | – | – | – | – | 0.76 | 11.1 | 6.11 | 89.6 | 9.75 | 143 | 14.9 | 219 | 20.5 | 300 | –
